Data set [1] addresses T1, HS-T4 DNA ligase (Enterobacteria phage T4, UniProt P00970 P00970:1-487).
T1 chain: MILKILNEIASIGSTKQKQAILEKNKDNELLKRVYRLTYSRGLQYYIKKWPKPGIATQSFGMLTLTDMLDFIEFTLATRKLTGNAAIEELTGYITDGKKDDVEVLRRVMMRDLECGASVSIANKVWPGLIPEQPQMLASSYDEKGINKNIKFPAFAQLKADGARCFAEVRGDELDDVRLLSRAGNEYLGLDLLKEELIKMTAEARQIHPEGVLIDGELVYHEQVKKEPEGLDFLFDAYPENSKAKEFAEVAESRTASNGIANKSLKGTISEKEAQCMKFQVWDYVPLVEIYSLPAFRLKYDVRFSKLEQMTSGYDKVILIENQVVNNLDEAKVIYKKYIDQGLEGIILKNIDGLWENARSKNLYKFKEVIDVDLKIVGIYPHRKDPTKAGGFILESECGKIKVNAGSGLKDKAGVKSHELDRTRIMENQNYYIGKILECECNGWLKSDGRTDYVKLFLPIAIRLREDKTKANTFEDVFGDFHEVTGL
Description: ligation gel assay to SEQ 3 adaptor; agarose-immobilized form retains activity after 60-100 C, soluble form does not. Particulars: tags: SNAP-tag fusion, soluble or immobilized on BG-agarose. As to the method: (§1) A FAM-labeled DNA duplex was formed by annealing synthetic oligomer, Gene32FAM-fw3′A, /56-FAMN/CA TGGTGATTACGATTCTTGCCCAGTATGTCAATACATCAGTAAAAATA (SEQ ID NO:1) and Gene32-rv5′p, /5Phos/AT TTTTACTGATGTATTGACATACTGGGCAAGAATCGTAATCAC CATG (SEQ ID NO:2).
(§2) For heat treatment, an aliquot of 15.83 μL from an enzyme master mixture was incubated at 4, 40, 60, 80, 90, 95 or 100° C. for 10 min, followed by addition of 9.17 μL of the DNA substrate mixture. All the ligation reactions were carried out at 4° C. overnight in a shaker. The samples were analyzed by electrophoresis on a 12% Tris-Glycine PAGE (Novex/Invitrogen) in 1×TAE Buffer for 2.5 hours at 25 mA (current). […] In contrast, HS-T4 DNA Ligase immobilized to BG-Agarose beads retained enzymatic activity after treatment in the same range of elevated temperature tested.

Data set [2] addresses T2, T4 DNA ligase (Enterobacteria phage T4, UniProt P00970 P00970:1-487).
T2 sequence: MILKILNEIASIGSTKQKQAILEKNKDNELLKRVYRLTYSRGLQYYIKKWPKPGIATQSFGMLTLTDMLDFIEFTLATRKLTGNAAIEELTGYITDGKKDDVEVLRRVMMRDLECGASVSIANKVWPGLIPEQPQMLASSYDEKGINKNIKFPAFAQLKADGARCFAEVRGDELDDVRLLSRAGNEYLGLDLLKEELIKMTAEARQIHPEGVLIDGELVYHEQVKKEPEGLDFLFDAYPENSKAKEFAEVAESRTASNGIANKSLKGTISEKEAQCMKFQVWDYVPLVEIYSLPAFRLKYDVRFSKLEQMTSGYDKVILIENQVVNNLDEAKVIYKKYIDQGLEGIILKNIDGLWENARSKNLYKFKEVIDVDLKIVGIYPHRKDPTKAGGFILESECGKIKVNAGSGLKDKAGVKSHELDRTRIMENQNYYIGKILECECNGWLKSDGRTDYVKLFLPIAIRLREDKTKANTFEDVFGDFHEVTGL
Description: ligation gel assay to SEQ 3 adaptor, 4 C; no activity after 60-100 C pretreatment. The settings on record: tags: untagged, NEB M0202. The procedure: as §1, §2

B1: Gene32 FAM duplex + TA adaptor (dsDNA)
DNA 1: CATGGTGATTACGATTCTTGCCCAGTATGTCAATACATCAGTAAAAATA
DNA 2: ATTTTTACTGATGTATTGACATACTGGGCAAGAATCGTAATCACCATG
modifications: 5'-phosphate on SEQ 2
In the case of B1, the binding result in data set [1] and in data set [2] was “binds” throughout.
